From the Human Domainome abundance scans (Beltran et al. 2025)
± gives the uncertainty stated by the source.

B1: E3 ubiquitin-protein ligase TRIM36, residues 208 to 252; numbered along this chain, Q9NQ86 (parent)
chain: KILMCPEHETERINMYCELCRRPVCHLCKLGGNHANHRVTTMSSA
B2: GAS2-like protein 1, residues 209 to 276; numbered along this chain, Q99501 (parent)
chain: DELVREILGRCTCPDQFPMIKVSEGKYRVGDSSLLIFVRVLRSHVMVRVGGGWDTLEHYLDKHDPCRC

Variants of: B1
Assay: abundance fitness (aPCA) (normalised: wild type 0, dead -1); higher = more abundant; growth selection in yeast, the domain comes from the species named
Settings: Homo sapiens

Abundance fitness of substitutions, site by site:
V39: T 0.054 ± 0.069; N 0.057 ± 0.097; L -0.007 ± 0.053; Q 0.008 ± 0.059; E 0.037 ± 0.053; A 0.079 ± 0.048; P -0.005 ± 0.053; D 0.079 ± 0.08; I -0.149 ± 0.24; H -0.023 ± 0.088; W -0.138 ± 0.052; F -0.103 ± 0.099; M 0.028 ± 0.072; R -0.064 ± 0.048; G 0.079 ± 0.05; Y -0.184 ± 0.1; C -0.079 ± 0.071; S 0.008 ± 0.055
M42: G 0.123 ± 0.045; T 0.097 ± 0.064; Y -0.134 ± 0.1; P 0.087 ± 0.068; Q 0.067 ± 0.068; F -0.034 ± 0.15; K 0.079 ± 0.06; L -0.031 ± 0.051; A 0.12 ± 0.052; N -0.059 ± 0.079; V 0.001 ± 0.046; I -0.282 ± 0.081; D 0.039 ± 0.087; S 0.06 ± 0.058; H -0.524 ± 0.28; W -0.071 ± 0.048; E 0.16 ± 0.061
H37: M -0.298 ± 0.069; F -0.486 ± 0.092; S -0.198 ± 0.063; W -0.44 ± 0.054; G -0.127 ± 0.046; I -0.529 ± 0.16; A -0.027 ± 0.051; D -0.217 ± 0.063; Y -0.36 ± 0.12; L -0.26 ± 0.051; P -0.194 ± 0.058; C -0.007 ± 0.061; E -0.038 ± 0.054; T -0.208 ± 0.064; K -0.176 ± 0.068; N -0.231 ± 0.078; R -0.242 ± 0.045; Q -0.119 ± 0.065
R38: W 0 ± 0.098; C 0.017 ± 0.067; I -0.11 ± 0.087; E 0.085 ± 0.061; K -0.006 ± 0.071; Q 0.024 ± 0.078; Y -0.005 ± 0.093; D 0.05 ± 0.069; F -0.121 ± 0.1; M 0.008 ± 0.055; A 0.021 ± 0.049; T 0.075 ± 0.062; P -0.011 ± 0.058; G 0.108 ± 0.045; N -0.002 ± 0.08; S 0.018 ± 0.073; V 0.036 ± 0.055
S44: L -0.179 ± 0.054; H -0.119 ± 0.067; I -0.246 ± 0.074; W -0.274 ± 0.073; K -0.212 ± 0.061; N -0.038 ± 0.07; T -0.028 ± 0.057; P 0.034 ± 0.056; E 0.086 ± 0.057; C -0.208 ± 0.06; F -0.263 ± 0.085; R -0.1 ± 0.05; V -0.047 ± 0.052; M -0.138 ± 0.071; D 0.069 ± 0.063; A 0.031 ± 0.048; Q -0.038 ± 0.069
S43: M -0.13 ± 0.074; V -0.075 ± 0.052; G -0.022 ± 0.053; A 0.001 ± 0.056; K -0.145 ± 0.065; N -0.042 ± 0.096; C -0.129 ± 0.063; I -0.272 ± 0.09; Q 0.027 ± 0.067; W -0.352 ± 0.066; H -0.067 ± 0.12; Y -0.439 ± 0.12; T -0.093 ± 0.054; F -0.415 ± 0.18; L -0.181 ± 0.056; D -0.063 ± 0.093; E 0.083 ± 0.069
T41: I -0.158 ± 0.078; E 0.071 ± 0.058; C -0.112 ± 0.066; R -0.093 ± 0.045; F -0.189 ± 0.084; H -0.526 ± 0.18; V -0.084 ± 0.046; K 0.007 ± 0.06; M -0.142 ± 0.083; Q -0.11 ± 0.086; G 0.003 ± 0.043; W -0.249 ± 0.053; S -0.043 ± 0.056; A -0.111 ± 0.062; D -0.026 ± 0.065; P -0.059 ± 0.062; L -0.149 ± 0.049; N -0.289 ± 0.16; Y -0.29 ± 0.12
N36: M -0.109 ± 0.068; Y -0.147 ± 0.089; W -0.299 ± 0.051; L -0.097 ± 0.049; Q 0.021 ± 0.063; T -0.024 ± 0.054; S -0.052 ± 0.051; V -0.202 ± 0.052
A45: P 0.015 ± 0.099; L -0.156 ± 0.17; Q -0.21 ± 0.2; K -0.265 ± 0.36; M -0.232 ± 0.099; N -0.549 ± 0.46; D 0.078 ± 0.16; T -0.143 ± 0.084; C -0.482 ± 0.1; S -0.074 ± 0.084; R -0.112 ± 0.094; G 0.023 ± 0.062; V -0.091 ± 0.076
T40: D 0.039 ± 0.074; K -0.112 ± 0.08; L -0.243 ± 0.054; E -0.04 ± 0.066; Y -0.191 ± 0.16; V -0.023 ± 0.059; N 0.141 ± 0.087; F -0.317 ± 0.11; P 0.003 ± 0.053; R -0.089 ± 0.043; H -0.146 ± 0.069; Q -0.014 ± 0.066; A -0.027 ± 0.064; I -0.265 ± 0.08; M -0.318 ± 0.097; W -0.287 ± 0.06; S -0.025 ± 0.051

Variants of: B2
Assay: as above
Settings: Homo sapiens

Abundance fitness: each site, then its substitutions
R10: W -0.728 ± 0.11; G -0.432 ± 0.077; C -0.72 ± 0.11; Y -0.564 ± 0.13; E -0.386 ± 0.1; K -0.135 ± 0.063; A -0.311 ± 0.052; H -0.013 ± 0.051; S -0.318 ± 0.05; P -0.863 ± 0.16; V -0.747 ± 0.099; I -0.766 ± 0.14; F -0.448 ± 0.067; T -0.111 ± 0.053; Q -0.088 ± 0.071; N -0.234 ± 0.062
E2: H -0.006 ± 0.2; A -0.263 ± 0.057; C -0.282 ± 0.091; S -0.06 ± 0.089; D 0.149 ± 0.083; K 0.031 ± 0.072; F 0.1 ± 0.17; V -0.434 ± 0.075; P -0.218 ± 0.097; R 0 ± 0.064; Y -0.057 ± 0.065; M -0.224 ± 0.087; T 0.012 ± 0.1; N 0.073 ± 0.076
R5: V -0.584 ± 0.12; E 0.056 ± 0.06; N 0.194 ± 0.08; I -0.465 ± 0.094; G -0.158 ± 0.053; D -0.161 ± 0.23; H -0.15 ± 0.094; P -0.947 ± 0.21; W -0.126 ± 0.053; F -0.257 ± 0.11; K 0.091 ± 0.055; Y -0.185 ± 0.099; L -0.178 ± 0.035; Q 0.084 ± 0.063; C -0.316 ± 0.41; T -0.059 ± 0.053; A 0.056 ± 0.052; S 0.093 ± 0.053
I7: V -0.219 ± 0.049; K -0.367 ± 0.12; G -0.763 ± 0.082; Q 0.069 ± 0.046; H -0.473 ± 0.076; T -0.38 ± 0.078; P -1.04 ± 0.17; M -0.273 ± 0.075; C -0.365 ± 0.069; L -0.012 ± 0.034; D -0.704 ± 0.36; R -0.85 ± 0.097; N -0.74 ± 0.13; E -0.128 ± 0.056; W -0.748 ± 0.12; Y -0.275 ± 0.14
L8: F -0.704 ± 0.12; C -0.47 ± 0.14; Y -1.05 ± 0.19; D -0.702 ± 0.25; A -0.352 ± 0.054; Q -0.323 ± 0.12; H -0.436 ± 0.2; P -0.819 ± 0.24; W -0.886 ± 0.12; T -0.414 ± 0.058; V -0.071 ± 0.035; R -0.754 ± 0.063; E -0.737 ± 0.089; S -0.532 ± 0.058; M -0.254 ± 0.1; N -0.793 ± 0.13; K -0.948 ± 0.13; G -0.819 ± 0.088; I -0.002 ± 0.063
E6: F -0.708 ± 0.15; K -0.151 ± 0.057; P -0.864 ± 0.1; M -0.309 ± 0.069; C -0.701 ± 0.14; W -0.821 ± 0.093; Y -0.694 ± 0.19; T -0.141 ± 0.055; D -0.136 ± 0.071; R -0.165 ± 0.045; L -0.446 ± 0.042; Q -0.071 ± 0.053; H -0.452 ± 0.1; I -0.521 ± 0.15; G -0.347 ± 0.074; S -0.205 ± 0.044; V -0.642 ± 0.1; N -0.431 ± 0.23
V4: L -0.388 ± 0.053; K -0.685 ± 0.23; C -0.717 ± 0.18; R -0.71 ± 0.12; W -0.796 ± 0.34; D -0.888 ± 0.15; F -0.35 ± 0.072; N -0.876 ± 0.18; T -0.833 ± 0.17; E -0.463 ± 0.071; G -0.966 ± 0.32; Q -1.01 ± 0.24; S -0.836 ± 0.12; A -0.804 ± 0.095; I 0.049 ± 0.043; H -0.855 ± 0.2; M -0.34 ± 0.071
C11: A -0.618 ± 0.084; E -1 ± 0.2; F -0.848 ± 0.2; D -0.84 ± 0.29
G9: N -0.076 ± 0.07; K -0.12 ± 0.067; R -0.204 ± 0.043; C -0.54 ± 0.088; T -0.346 ± 0.056; H -0.221 ± 0.071; D 0.107 ± 0.05; Q 0.061 ± 0.066; A 0.007 ± 0.061; F -0.399 ± 0.097; L -0.445 ± 0.054; E 0.03 ± 0.063; S 0.077 ± 0.031; I -0.572 ± 0.1; V -0.587 ± 0.044; P -0.818 ± 0.11; M -0.127 ± 0.065; W -0.71 ± 0.073
L3: C -0.117 ± 0.076; M -0.034 ± 0.063; W -0.643 ± 0.11; Q -0.025 ± 0.053; F -0.221 ± 0.14; V -0.324 ± 0.057; S -0.459 ± 0.069; E -0.627 ± 0.12; I -0.129 ± 0.072; P -0.711 ± 0.11; D -0.559 ± 0.15; T -0.526 ± 0.11; Y -0.268 ± 0.063; N -0.675 ± 0.15; R 0.01 ± 0.046; K -0.06 ± 0.044; H -0.34 ± 0.081
D1: F -0.55 ± 0.4; E -0.087 ± 0.2; Y -0.574 ± 0.15; V -0.653 ± 0.12; N -0.536 ± 0.13; W -0.621 ± 0.17; S -0.205 ± 0.13; G -0.596 ± 0.17; T -0.707 ± 0.15; A -0.623 ± 0.28; C -0.657 ± 0.23; K -0.233 ± 0.23; H -0.693 ± 0.24; L -0.761 ± 0.14; R -0.624 ± 0.2; P -0.517 ± 0.48
